Measurements published in patent WO2013005649A1.

target: human CCR6 N-terminal extracellular domain Fc fusion protein NthCCR6-IgG4Fc (human); test: SPR, Biacore T100; NthCCR6-IgG4Fc captured on anti-human IgG CM5 chip, antibody injected
Sequence (chain, as listed by the source limits assumed): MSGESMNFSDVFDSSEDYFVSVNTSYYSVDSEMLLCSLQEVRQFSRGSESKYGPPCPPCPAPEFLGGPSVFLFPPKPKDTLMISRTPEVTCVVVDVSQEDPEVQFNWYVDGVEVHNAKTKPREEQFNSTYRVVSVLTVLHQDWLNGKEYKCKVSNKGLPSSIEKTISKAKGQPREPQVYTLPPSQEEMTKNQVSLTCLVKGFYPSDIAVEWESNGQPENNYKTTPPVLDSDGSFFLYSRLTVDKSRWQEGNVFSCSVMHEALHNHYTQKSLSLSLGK

| Kd [nM] | Substance |
| --- | --- |
| 20 | commercially available anti-human CCR6 monoclonal antibody 11A9 (BD Pharmingen) |
| 70.9 | human CCR6 monoclonal antibody (clone 53103) (R&D Systems) |
| 4.97 | commercially available anti-human CCR6 monoclonal antibody R6H1 (eBioscience) |
